Patent US20160208003A1 (AFFITECH RESEARCH, published 2016)
Positions count from the first letter of the chain named. Like-named read-outs stand apart in the source and are kept apart here.

Tests used:
[1] = molecular target: T1, human CC chemokine receptor 4 (CCR4) (human, UniProt P51679 1-360); test: flow cytometry, saturation titration of scFv cross-linked via myc-tag on DT-40 CCR4+ cells; one site-specific binding fit
T1 construct: whole, on cells; Always presented on cells; also called CD194; human CCR4
T1 sequence (looked up): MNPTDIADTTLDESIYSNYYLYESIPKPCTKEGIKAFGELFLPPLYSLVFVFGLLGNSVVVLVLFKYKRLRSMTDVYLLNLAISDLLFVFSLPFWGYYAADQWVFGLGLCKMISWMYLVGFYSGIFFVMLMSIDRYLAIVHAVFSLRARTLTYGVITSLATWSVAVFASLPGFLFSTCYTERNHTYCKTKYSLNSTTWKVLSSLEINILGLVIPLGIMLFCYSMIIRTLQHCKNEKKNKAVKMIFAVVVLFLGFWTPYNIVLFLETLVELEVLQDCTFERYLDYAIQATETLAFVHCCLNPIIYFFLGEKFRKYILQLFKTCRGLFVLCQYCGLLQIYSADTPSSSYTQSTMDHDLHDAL
Method: DT 40 and CCRF-CEM cells were cultured as described in Example 2. The DT40 CCR4+ and DT40 (CCR4−) cells were harvested from culture flasks, washed 2 times with PBS (400×g, 5 min, 4° C.) and resuspended in PBS containing 0.2% BSA and 0.09% NaN₃. 1×10⁵ cells per well were aliquoted into V-shaped 96-well plates (Greiner Bio-One, Frikenhausen, Germany). […] […] Cells were washed, resuspended in 200 μl PBS with 0.2% BSA and 0.09% NaN₃, and transferred to a U-shaped 96 well Costar (Corning, Schiphol-Rijik, The Netherlands) plate for flow cytometry using an Easy Cyte device (Guava Technologies, Hayward, Calif., USA).

[2] = molecular target: T1, human CC chemokine receptor 4 (CCR4); test: competition flow cytometry on CCRF-CEM cells: unlabelled competitor against ca. 20 nM biotinylated MDC, streptavidin-PE [d]
Method: The competition binding assays were performed with biotinylated MDC or biotinylated TARC on DT-40-CCR4+ and CCRF-CEM cells. DT40 and CCRF-CEM cells were cultured as described in Example 2. TARC and MDC were biotinylated using standard procedures. The biotinylation process causes some losses, so the concentrations of biotinylated MDC and TARC recited herein are approximate.
The cells were harvested from culture flasks, washed 2 times with PBS (400×g, 5 min, 4° C.) and resuspended in PBS containing 0.2% BSA and 0.09% NaN3. 1×10^5 cells per well were aliquoted into V-shaped 96-well plates (Greiner Bio-One, Frikenhausen, Germany). Cells were centrifuged (400×g, 5 min, 4° C.) and resuspended in 50 μl IgG, single chain or unlabeled ligand (1:10 dilution series starting on 100/500/26, 4 μg/ml) mixed with a fixed concentration of biotinylated ligand (10 or 20 nM, see legend to FIG. 24). The cells were incubated for 2 hours at 4° C. and mixed with a pipette every 45 min. The cells were washed three times with 150 μl PBS with 0.2% BSA and 0.09% NaN3 and stained with 3 μg/ml streptavidin PE (BD Biosciences) for 45 minutes at 4° C. […] Apparent binding affinities (KD) were calculated according to the following equation derived from previously described methods (Kipriyanov et al, 1997b; Schodin & Kranz, 1993): […]

[3] = molecular target: T1, human CC chemokine receptor 4 (CCR4); test: IgG1 expressed from pLNO, purified; method not told there
[4] = molecular target: T1, human CC chemokine receptor 4 (CCR4); test: cell-based or functional assay
[5] = molecular target: T1, human CC chemokine receptor 4 (CCR4); test: flow cytometry, IgG titration on DT-40 CCR4+ cells, anti-human-FITC, MFI [a]
Method: The quality of the specific binding to DT40+ cells was tested for 9E1 D and 9E10J in scFv or IgG format in a titration experiment.
Alternatively, 9E1D and 9E10J were converted into the full-length human IgG1 and tested for cell binding. The DT40+CCR4 and DT40 cells were harvested from culture flasks, washed 2 times with PBS (400×g, 5 min, 4° C.) and resuspended in PBS containing 0.2% BSA and 0.09% NaN₃. 1×10⁵ cells per well were aliquoted into V-shaped 96-well plates (Greiner Bio-One, Frikenhausen, Germany). Cells were centrifuged (400×g, 5 min, 4° C.) and resuspended in a 1:5 dilution series of IgG starting on 10 μg/ml (50 μl/well). After 1 hour incubation at 4° C., the cells were washed three times with 150 μl PBS with 0.2% BSA and 0.09% NaN₃ and stained with 2.5 μg/ml RPE conjugated goat anti-human IgG (AbDSerotec, Düsseldorf, Germany) or 2.5 μg/ml anti human IgG Fc (goat polyclonal aff. pur) FITC (Sigma Aldrich) for 45 minutes at 4° C. Cells were washed, resuspended in 200 μl PBS with 0.2% BSA and 0.09% NaN₃, and transferred to a U-shaped 96 well Costar (Corning, Schiphol-Rijik, The Netherlands) plate for flow cytometry using an Easy Cyte device (Guava Technologies, Hayward, Calif., USA) or FACS Canto II flow cytometer (BD Biosciences, Heidelberg, Germany).

[6] = molecular target: T1, human CC chemokine receptor 4 (CCR4); test: flow cytometry, IgG titration on CCR4+ DT40 cells (2); one site-specific binding fit (Prism); IgG titration on CCR4+ DT40 cells, second experiment, DT40 (2)
Method: (§1) The IgG forms of antibodies 17G, 9E and KM3060var using various CCR4⁺ cell types were used (see Example 2).
(§2) For the flow cytometry experiments, the cells were harvested from the culture flasks, washed 2 times with PBS, re-suspended in PBS with 0.2% BSA and 0.09% NaN₃ and finally aliquoted 1×10⁵ cells per well into V-shaped 96-well plates (Greiner Bio-One, Frickenhausen, Germany). Cells were centrifuged at 400×g for 5 min and then incubated at 4° C. for 45 min with different antibody dilutions.
(§3) After washing with PBS with 0.2% BSA and 0.09% NaN₃, the cells were stained with 10 μg/ml of RPE-conjugated goat anti-human IgG (AbDSerotec, Düsseldorf, Germany) for 30 minutes at 4° C. The stained cells were washed, re-suspended in 200 μl PBS with 0.2% BSA and 0.09% NaN₃ and transferred to a U-shaped 96-well plate (Corning, Schiphol-Rijk, The Netherlands) for acquisition on EasyCyte flow cytometer (Guava Technologies, Hayward, Calif., USA).

[7] = molecular target: T1, human CC chemokine receptor 4 (CCR4); test: cell-based or functional assay; remark: listed apart in the source
[8] = molecular target: T1, human CC chemokine receptor 4 (CCR4); test: cell-based or functional assay; remark: listed apart in the source
[9] = molecular target: T1, human CC chemokine receptor 4 (CCR4); test: competition flow cytometry on CCR4-transfected DT40 cells: unlabelled IgG against 6.8 nM biotinylated KM3060var IgG, streptavidin-RPE
Method: To analyze the epitope binding of anti-CCR4 antibodies 17G, 9E and KM3060var, competition experiments were performed using flow cytometry. The binding of biotinylated antibodies to CCR4 transfected DT40-cells was challenged in the presence of different concentrations of non-biotinylated anti-CCR4 antibodies. The CCR4⁺ DT40 cells were harvested from culture flasks, washed 2 times with PBS, re-suspended in PBS with 0.2% BSA and 0.09% NaN₃ and finally aliquoted 1×10⁵ cells per well into V-shaped 96-well plates (Greiner Bio-One, Frickenhausen, Germany). Cells were centrifuged at 400×g for 5 min and then incubated at 4° C. for 3-4 hours with fixed amounts of biotinylated IgG and different concentrations of non-biotinylated antibodies. After washing with PBS with 0.2% BSA and 0.09% NaN₃, the cells were stained with 2.5 μg/ml of Streptavidin—RPE (BD Pharmingen, San Diego, Calif., USA) for 30 minutes at 4° C. The stained cells were washed, re-suspended in 250 μl PBS with 0.2% BSA and 0.09% NaN₃ and transferred to a U-shaped 96-well plate (Corning, Schiphol-Rijk, The Netherlands) for acquisition on EasyCyte flow cytometer (Guava Technologies, Hayward, Calif., USA). The results shown in FIGS. 10 A, B and C illustrate that the 17G and 9E antibodies have epitopes that are identical or at least overlapping.

[10] = molecular target: T1, human CC chemokine receptor 4 (CCR4); test: flow cytometry, IgG titration on CCRF-CEM cells; one site-specific binding fit (Prism); IgG titration on CCRF-CEM cells (natural CCR4+ line)
Method: as §1, §2, §3

[11] = molecular target: T1, human CC chemokine receptor 4 (CCR4); test: flow cytometry, IgG titration on CCR4+ HEK293T cells; one site-specific binding fit (Prism); IgG titration on CCR4+ HEK293T cells
Method: as §1, §2, §3

[12] = molecular target: T1, human CC chemokine receptor 4 (CCR4); test: flow cytometry, IgG titration on CCR4+ DT40 cells; one site-specific binding fit (Prism); IgG titration on CCR4+ DT40 cells
Method: as §1, §2, §3

B1: 9E scFv (scFv)
scFv: QVQLVQSGAEVKKPGSSVKVSCKASGGTFSNYAISWVRQAPGQGLEWMGGIIPIFGTANYAQKFQGRVTITADESTSTAYMELSSLRSEDTAVYYCARRGGSYFDYWGQGTLVTVSSKLSGSASAPKLEEGEFSEARVSYVLTQPPSASGTPGQSVTISCSGSTSNIGSHYVFWYQQLPGTAPRLLIYRNHQRPSGVPDRLSGSKSGTSASLAISGLRSEDEADYYCAVWDDTLSGWVFGGGTKLTVLAAAGSEQKLISEEDLNSHHHHHH
notes: For staining the scFv was pre-incubated with an anti-c-myc antibody with human Fc (cross-linked, dimer-like); also called scFv 9E
In the case of B1, the Kd [1] is reported as 4.95 nM.

B2: 9E10J scFv (scFv)
scFv: B1 scFv with N31S, I70M, A72R, E74T, A79V
notes: also called scFv 9E10J
With B2 the “IC50 (read off the curve)” value [2] was ~200 nM and the Kd [1] was 1.17 nM.

B3: 11F IgG (full length human IgG1, kappa) (antibody, V domains shown)
VH: not shown
VL: ETTLTQSPGTLSLSPGEGVTLSCRASQSVNRRYLAWYQQKPGQAPRLLIYGASSRATGIPDRFSGSGSGTDFTLTISRLEPEDFAVYYCQQYGSSPLTFGGGTKVEIKR
B3: binds [3].

B4: defucosylated 9E10J IgG (antibody, V domains shown)
VH: QVQLVQSGAEVKKPGSSVKVSCKASGGTFSSYAISWVRQAPGQGLEWMGGIIPIFGTANYAQKFQGRVTMTRDTSTSTVYMELSSLRSEDTAVYYCARRGGSYFDYWGQGTLVTVSS
VL: SYVLTQPPSASGTPGQSVTISCSGSTSNIGSHYVFWYQQLPGTAPRLLIYRNHQRPSGVPDRLSGSKSGTSASLAISGLRSEDEADYYCAVWDDTLSGWVFGGGTKLTVLG
modifications: Fc glycans defucosylated (IgG produced in the presence of Kifunensine, 100 ng/ml)
In the case of B4, the “ADCC of CCRF-CEM cells, EC50 (mean, N=4)” value [4] is reported as 2.1 ng/mL.

B5: 9E1D IgG (full length human IgG1, lambda) (antibody, V domains shown)
VH: B4 VH with S31N, M70I, R72A, T74E, V79A
VL: QPVLTQPPSASGTPGQRVTISCSGGGSNIGRRFVNWYQQLPGTAPKLLIYRNNQRPSGVPDRFSGSKSGTSASLVISGLRSEDEADYYCAAWDDSLSGWVFGGGTKLTVLG
B5: binds [5].

B6: 9E1D scFv (scFv)
scFv: QVQLVQSGAEVKKPGSSVKVSCKASGGTFSNYAISWVRQAPGQGLEWMGGIIPIFGTANYAQKFQGRVTITADESTSTAYMELSSLRSEDTAVYYCARRGGSYFDYWGQGTLVTVSSKLSGSASAPKLEEGEFSEARVQPVLTQPPSASGTPGQRVTISCSGGGSNIGRRFVNWYQQLPGTAPKLLIYRNNQRPSGVPDRFSGSKSGTSASLVISGLRSEDEADYYCAAWDDSLSGWVFGGGTKLTVLAAAGSEQKLISEEDLNSHHHHHH
notes: also called scFv 9E1D
In the case of B6, the Kd [1] is reported as 5.22 nM.

B7: KM3060var IgG (antibody, V domains shown)
VH: EVQLVESGGDLMKPGGSLKISCAASGFIFSNYGMSWVRQTPDMRLEWVATISSASTYSYYPDSVKGRFTISRDNAENSLYLQMNSLRSEDTGIYYCGRHSDGNFAFGYWGRGTLVTVSS
VL: DVLMTQTPLSLPVSLGDQASISCRSSRNIVHINGDTYLEWYLQRPGQSPKLLIYKVSNRFSGVPDRFSGSGSGTDFTLKISRVEAEDLGVYYCFQGSLLPWTFGGGTRLEIK
notes: Corresponds to KM3060 expressed in a different host; also called comparator KM3060var
In the case of B7, the Kd [6] is reported as 4.82 nM, the “Ca++ flux in CCRF-CEM cells: signal response to MDC stimulation (% of MDC in the absence of IgGs), IgG 10 µg/mL” value [7] is reported as 92% and the “Ca++ flux in CCRF-CEM cells: signal response to TARC stimulation (% of TARC alone), IgG 10 µg/mL” value [7] is reported as 104%. For the same binder, the “ADCC of CCRF-CEM cells, EC50 (mean, N=3)” value [8] was 367 ng/mL, the “IC50 (read off the curve)” value [9] was ~6 nM and the Kd [10] was 79.8 nM. The “ADCC of CCRF-CEM cells, EC50 (mean, N=3)” value [4] was 405 ng/mL, the Kd [11] was 11.4 nM and the Kd [12] was 3.67 nM.
